{"source": "paper PMC9926122", "target": "recombinant EB1 (HS-AFM and microtubule experiments) (human) (UniProt Q15691)", "sequence (Q15691 whole entry)": "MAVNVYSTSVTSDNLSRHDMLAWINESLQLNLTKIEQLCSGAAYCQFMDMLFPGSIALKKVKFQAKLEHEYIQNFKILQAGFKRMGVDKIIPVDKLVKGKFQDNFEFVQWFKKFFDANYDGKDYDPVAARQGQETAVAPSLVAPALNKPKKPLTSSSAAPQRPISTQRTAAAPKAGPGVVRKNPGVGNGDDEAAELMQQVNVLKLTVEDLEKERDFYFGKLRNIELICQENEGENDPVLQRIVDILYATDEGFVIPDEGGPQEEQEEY", "data": [{"substance": "6xHis-tagged WT Ska1 (from UniProt Q96BD8 1-255) (natural protein)", "values": [{"measurement": "localization of Ska1 on prepolymerized MTs in vitro in the presence of EB1 (1 uM), fluorescence microscopy: WT Ska1 against Ska1 ΔSHLP (0.5 uM each)", "result": 1.6, "unit": "fold"}]}]}
